Source: US20070148774A1 (MEDICAL RESEARCH COUNCIL, published 2007)

Experiments:
human lysozyme = target: T1, human lysozyme (human, UniProt P61626 19-148); assay: phage ELISA, antigen coated at 1 mg/ml, sheep anti-M13 serum
T1 construct: also called HUL
T1 sequence (looked up): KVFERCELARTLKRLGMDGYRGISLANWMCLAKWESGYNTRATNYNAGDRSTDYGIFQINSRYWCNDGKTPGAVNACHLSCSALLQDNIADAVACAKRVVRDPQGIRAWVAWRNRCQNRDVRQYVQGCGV

bovine serum albumin [1] = target: T2, bovine serum albumin (bovine, UniProt P02769 25-607); assay: phage ELISA, antigens coated at 200 µg/ml, average absorbance of duplicates after 10 minutes
T2 construct: also called BSA

bovine serum albumin [2] = target: T2, bovine serum albumin; assay: phage ELISA (FIG. 51, clone 1)
hen egg-white lysozyme = target: T3, hen egg-white lysozyme (hen, UniProt P00698 19-147); assay: phage ELISA on plates coated with HEL; signal on BSA subtracted
T3 construct: also called HEL; hen egg lysozyme

[3] = target: T4, turkey egg-white lysozyme (turkey, UniProt P00703 19-147); assay: phage ELISA on plates coated with TEL; signal on BSA subtracted
T4 construct: also called turkey egg lysozyme; turkey lysozyme

bovine serum albumin [4] = target: T2, bovine serum albumin; assay: phage ELISA (FIG. 51, clone 9)
bovine serum albumin [5] = target: T2, bovine serum albumin; assay: phage ELISA (FIG. 51, clone 3)
[6] = target: T4, turkey egg-white lysozyme; assay: phage ELISA on turkey egg white lysozyme after 4 rounds of selection

T4 sequence (P00703 19-147): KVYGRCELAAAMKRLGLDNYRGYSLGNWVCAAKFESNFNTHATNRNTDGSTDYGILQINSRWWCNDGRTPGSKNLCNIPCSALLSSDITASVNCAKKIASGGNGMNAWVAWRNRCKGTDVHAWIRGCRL
T2 sequence (P02769 25-607 limits assumed): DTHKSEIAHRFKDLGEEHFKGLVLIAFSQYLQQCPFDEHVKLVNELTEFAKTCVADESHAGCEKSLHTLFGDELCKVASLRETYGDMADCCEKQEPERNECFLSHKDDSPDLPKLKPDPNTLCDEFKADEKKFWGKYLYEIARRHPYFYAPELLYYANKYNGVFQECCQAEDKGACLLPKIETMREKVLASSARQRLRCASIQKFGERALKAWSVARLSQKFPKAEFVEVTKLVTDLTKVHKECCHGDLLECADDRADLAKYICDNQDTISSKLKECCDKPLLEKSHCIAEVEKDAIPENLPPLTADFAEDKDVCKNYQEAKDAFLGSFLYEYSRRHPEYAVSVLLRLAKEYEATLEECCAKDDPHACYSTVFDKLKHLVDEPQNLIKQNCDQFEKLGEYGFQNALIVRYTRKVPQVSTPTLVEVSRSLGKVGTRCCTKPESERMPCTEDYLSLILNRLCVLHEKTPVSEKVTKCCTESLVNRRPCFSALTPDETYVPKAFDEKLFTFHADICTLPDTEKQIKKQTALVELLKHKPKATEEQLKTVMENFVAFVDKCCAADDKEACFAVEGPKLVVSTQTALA
T3 sequence (P00698 19-147 limits assumed): as the sequence (P00703 19-147) above, with Y3F, L15H, H41Q, K73R, A99V, G101D, H121Q counted along it

B1: fdTscFvD1.3 (phage antibody displaying the single chain Fv of anti-lysozyme antibody D1.3) (scFv, not shown: large carriers)
scFv: QVQLQESGPGLVAPSQSLSITCTVSGFSLTGYGVNWVRQPPGKGLEWLGMIWGDGNTDYNSALKSRLSISKDNSKSQVFLKMNSLHTDDTARYYCARERDYRLDYWGQGTTVTVSSGGGGSGGGGSGGGGSDIELTQSPASLSASVGETVTITCRASGNIHNYLAWYQQKQGKSPQLLVYYTTTLADGVPSRFSGSGSGTQYSLKINSLQPEDFGSYYCQHFWSTPRTFGGGTKLEIK
modifications: scFv displayed on fd phage as a fusion near the N-terminus of g3p
notes: also called pAb D1.3; pAb (D1.3)
B1: no binding (human lysozyme); no binding (tested: one amount, as in example 6) (bovine serum albumin [1]).

B2: fdCAT2 scFvD1.3 phage (scFv, not shown: large carriers)
scFv: B1 scFv
modifications: scFv displayed on fd phage as an N-terminal fusion to g3p
notes: also called original D1.3 scFv
B2: no binding (bovine serum albumin [2]).

B3: clone M21 (clone 9 of FIG. 51): scFv of D1.3 VH with a light chain selected from the VLK library of an unimmunised mouse (scFv)
scFv: QVQLQESGPGLVAPSQSLSITCTVSGFSLTGYGVNWVRQPPGKGLEWLGMIWGDGNTDYNSALKSRLSISKDNSKSQVFLKMNSLHTDDTARYYCARERDYRLDYWGQGTTVTVSSGGGGSGGGGSGGGGSDIELTQSPALMAASPGEKVTITCSVSSSISSSNLHWYQQKSETSPKPWIYGTSNLASGVPVRFSGSGSGTSYSLTISSMEAEDAATYYCQQWSSYPLTFGAGTKLEIKR
notes: not shown: fd gene III protein (g3p), the phage display partner fused after the scFv through the NotI AAA junction
B3: binds (hen egg-white lysozyme); binds [3]; no binding (bovine serum albumin [4]).

B4: clone MF1 (clone 3 of FIG. 51): scFv of D1.3 VH with a light chain selected from the VLK library of an unimmunised mouse (scFv)
scFv: QVQLQESGPGLVAPSQSLSITCTVSGFSLTGYGVNWVRQPPGKGLEWLGMIWGDGNTDYNSALKSRLSISKDNSKSQVFLKMNSLHTDDTARYYCARERDYRLDYWGQGTTVTVSSGGGGSGGGGSGGGGSDIELTQSPSSLSASLGERVSLTCRASQDIGSSLNWLQQEPDGTIKRLIYATSSLDSGVPKRFSGSRSGSDYSLTISSLESEDFVDYYCLQYASSPWTFGGGTKLELKR
notes: also called M1F; D1.3 M1F; not shown: fd gene III protein (g3p), the phage display partner fused after the scFv through the NotI AAA junction
B4: binds (hen egg-white lysozyme); no binding (bovine serum albumin [5]); binds [3].

B5: lysozyme binder scFv from the unimmunized human library (VH13.1 / VL13.1), on phage (scFv, V domains shown)
VH: QVQLVQSGAEVKKPGQSLMISCQGSGYSFSNYWIGWVRQMPGKGLEWMGIIYPGDSDTRYSPSFQGQVTISADKSISTAYLHWSSLKASDTALYYCARLVGGTPAYWGQGT
VL: HVILTQPASVSGSPGQSITISCTGSSRDVGGYNYVSWYQHHPGKAPKLLISEVTNRPSGVSNRFSGSKSGNTASLTISGLQAEDEADYFCASYTSSKTYVFGG
notes: scFv with (Gly4Ser)3 linker on pHEN1 phagemid particles
B5: binds [6].
